Assay results published in IntAct's records for PubMed 20062059.

B1: GTP-binding protein RHO1 (Saccharomyces cerevisiae), P06780 (parent)
chain: MSQQVGNSIRRKLVIVGDGACGKTCLLIVFSKGQFPEVYVPTVFENYVADVEVDGRRVELALWDTAGQEDYDRLRPLSYPDSNVVLICFSIDLPDSLENVQEKWIAEVLHFCQGVPIILVGCKVDLRNDPQTIEQLRQEGQQPVTSQEGQSVADQIGATGYYECSAKTGYGVREVFEAATRASLMGKSKTNGKAKKNTTEKKKKKCVLL

Variants of: B1
Conditions: with sec3_yeast SEC3, P33332
Sequence of sec3_yeast SEC3, P33332 (P33332 whole entry): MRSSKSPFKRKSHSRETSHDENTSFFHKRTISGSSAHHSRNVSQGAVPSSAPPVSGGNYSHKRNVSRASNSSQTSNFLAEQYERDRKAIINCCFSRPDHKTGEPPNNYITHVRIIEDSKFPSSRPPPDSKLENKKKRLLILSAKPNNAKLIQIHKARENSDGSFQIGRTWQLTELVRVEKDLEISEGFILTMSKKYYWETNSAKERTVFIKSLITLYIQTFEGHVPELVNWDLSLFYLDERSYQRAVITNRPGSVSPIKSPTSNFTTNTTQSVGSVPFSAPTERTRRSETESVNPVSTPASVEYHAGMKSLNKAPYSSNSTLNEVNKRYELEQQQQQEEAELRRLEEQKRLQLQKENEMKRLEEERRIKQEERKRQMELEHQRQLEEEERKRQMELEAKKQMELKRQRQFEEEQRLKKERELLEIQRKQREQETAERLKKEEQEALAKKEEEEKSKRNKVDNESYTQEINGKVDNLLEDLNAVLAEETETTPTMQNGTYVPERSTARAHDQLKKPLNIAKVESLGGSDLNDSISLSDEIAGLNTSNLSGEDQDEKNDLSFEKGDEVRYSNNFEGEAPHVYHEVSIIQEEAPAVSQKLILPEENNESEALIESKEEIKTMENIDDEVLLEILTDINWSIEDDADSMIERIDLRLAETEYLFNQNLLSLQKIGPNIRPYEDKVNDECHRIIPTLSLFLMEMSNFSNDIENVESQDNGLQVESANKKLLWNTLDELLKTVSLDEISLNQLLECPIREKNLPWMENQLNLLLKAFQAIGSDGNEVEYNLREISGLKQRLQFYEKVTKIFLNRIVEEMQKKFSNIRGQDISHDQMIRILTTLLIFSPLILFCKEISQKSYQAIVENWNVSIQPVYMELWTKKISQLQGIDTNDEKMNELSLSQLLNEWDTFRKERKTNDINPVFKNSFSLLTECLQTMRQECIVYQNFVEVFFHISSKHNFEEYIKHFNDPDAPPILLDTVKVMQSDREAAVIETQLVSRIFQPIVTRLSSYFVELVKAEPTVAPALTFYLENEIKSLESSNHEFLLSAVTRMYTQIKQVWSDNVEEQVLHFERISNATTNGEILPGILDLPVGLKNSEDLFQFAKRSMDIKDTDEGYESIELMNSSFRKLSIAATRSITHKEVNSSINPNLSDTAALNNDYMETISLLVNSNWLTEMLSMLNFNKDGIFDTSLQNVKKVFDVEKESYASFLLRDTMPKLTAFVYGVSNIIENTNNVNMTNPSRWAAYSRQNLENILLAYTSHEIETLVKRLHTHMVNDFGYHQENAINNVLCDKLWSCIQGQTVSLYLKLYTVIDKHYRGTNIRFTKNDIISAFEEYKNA

Row | Variant | effect of a mutation on the interaction
1 | Y71A | disrupting interaction
2 | Q68A | disrupting interaction
3 | F44A | disrupting interaction
4 | R73A | disrupting interaction
5 | V43A | disrupting interaction
